Reference: US20050043228A1

Assays:
[1] = molecular target: protamine (from protamine sulfate); assay: share of Val^8-GLP-1 in particles (supernatant versus total); 2.0 mg Val^8-GLP-1 + 0.44 mg protamine, ratio 4.5
[2] = molecular target: protamine (from protamine sulfate); assay: share of Val^8-GLP-1 in particles (supernatant versus total); 2.0 mg Val^8-GLP-1 + 0.27 mg protamine, ratio 7.4
[3] = molecular target: protamine (from protamine sulfate); assay: share of Val^8-GLP-1 in particles (supernatant versus total); 2.0 mg Val^8-GLP-1 + 0.33 mg protamine, ratio 6.1
[4] = molecular target: protamine (from protamine sulfate); assay: share of Val^8-GLP-1 in particles (supernatant versus total); 2.0 mg Val^8-GLP-1 + 0.55 mg protamine, ratio 3.6
[5] = molecular target: protamine (from protamine sulfate); assay: share of Val^8-GLP-1 in particles (supernatant versus total); 2.0 mg Val^8-GLP-1 + 0.22 mg protamine, ratio 9.1
[6] = molecular target: protamine (from protamine sulfate); assay: share of Val^8-GLP-1 in particles (supernatant versus total); 2.0 mg Val^8-GLP-1 + 0.16 mg protamine, ratio 12.5
[7] = molecular target: protamine (from protamine sulfate); assay: share of Val^8-GLP-1 in particles (supernatant versus total); 2.0 mg Val^8-GLP-1 + 0.49 mg protamine, ratio 4.1
[8] = molecular target: protamine (from protamine sulfate); assay: Val^8-GLP-1 in the supernatant versus total, after mixing with protamine, 25 C, 24 h
[9] = molecular target: poly-L-arginine; assay: Val^8-GLP-1 in the supernatant versus total, after mixing with poly-L-arginine, 25 C, 24 h
[10] = molecular target: protamine (from protamine sulfate); assay: share of Val^8-GLP-1 in particles (supernatant versus total); 2.0 mg Val^8-GLP-1 + 0.38 mg protamine, ratio 5.3

- Yield % [1]: 99.5%
- Yield % [2]: 84.3%
- Yield % [3]: 94.5%
- Yield % [4]: 99.4%
- Yield % [5]: 73.2%
- Yield % [6]: 54.6%
- Yield % [7]: 99.7%
- yield (share of Val^8-GLP-1 in the particles) [8]: 90 to 95%
- yield (share of Val^8-GLP-1 in the particles) [9]: 90%
- Yield % [10]: 98.3%
B1: Val^8-GLP-1(7-37)OH (peptide)
peptide: HVEGTFTSDVSSYLEGQAAKEFIAWLVKGRG
